Series [1] deals with Interferon-gamma, intracellular (Homo sapiens, UniProt P01579 24-161). Put plainly: flow cytometry of fixed permeabilized cells; 0.05 pM aptamer; no correlation with stimulated cells; PBS binding buffer (SELEX with 0.1 mg/mL salmon sperm DNA and 1 mg/mL BSA, 37 °C); Kd assay on beads in binding buffer, room temperature, 30 min; pH not stated. The note with it: protein: native; chain copies: 2. A general note: Flow cytometry measures light scatter and fluorescence of single cells or particles in a stream.
Interferon-gamma, intracellular, sequence (P01579 24-161): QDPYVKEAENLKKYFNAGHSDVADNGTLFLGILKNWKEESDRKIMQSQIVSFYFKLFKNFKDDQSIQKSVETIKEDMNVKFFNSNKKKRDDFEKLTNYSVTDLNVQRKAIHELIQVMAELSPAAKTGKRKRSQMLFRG

The target in series [2] is T1, Interferon-gamma (IFN-γ) (Homo sapiens, UniProt P01579 24-161). Put plainly: flow cytometry bead binding; binding buffer (PBS), room temperature, blank-bead signal subtracted; PBS binding buffer (SELEX with 0.1 mg/mL salmon sperm DNA and 1 mg/mL BSA, 37 °C); Kd assay on beads in binding buffer, room temperature, 30 min; pH not stated. To be noted: protein: commercial; chain copies: 2; label: FITC.
T1 sequence (P01579 24-161): as above

Series [3] addresses Bovine serum albumin (BSA) (Bos taurus, UniProt P02769 25-607). Briefly: flow cytometry bead binding; bound albumin to a large degree; PBS binding buffer (SELEX with 0.1 mg/mL salmon sperm DNA and 1 mg/mL BSA, 37 °C); Kd assay on beads in binding buffer, room temperature, 30 min; pH not stated. The note with it: protein: commercial; label: FITC.
Series [4] deals with T1, Interferon-gamma (IFN-γ). Briefly: flow cytometry bead binding; PBS binding buffer (SELEX with 0.1 mg/mL salmon sperm DNA and 1 mg/mL BSA, 37 °C); Kd assay on beads in binding buffer, room temperature, 30 min; pH not stated. To be noted: protein: commercial; chain copies: 2; label: FITC.

The source of these data is paper PMC4029989, “Selection of a Novel DNA Aptamer for Assay of Intracellular Interferon-Gamma”.

Bovine serum albumin (BSA), sequence (P02769 25-607): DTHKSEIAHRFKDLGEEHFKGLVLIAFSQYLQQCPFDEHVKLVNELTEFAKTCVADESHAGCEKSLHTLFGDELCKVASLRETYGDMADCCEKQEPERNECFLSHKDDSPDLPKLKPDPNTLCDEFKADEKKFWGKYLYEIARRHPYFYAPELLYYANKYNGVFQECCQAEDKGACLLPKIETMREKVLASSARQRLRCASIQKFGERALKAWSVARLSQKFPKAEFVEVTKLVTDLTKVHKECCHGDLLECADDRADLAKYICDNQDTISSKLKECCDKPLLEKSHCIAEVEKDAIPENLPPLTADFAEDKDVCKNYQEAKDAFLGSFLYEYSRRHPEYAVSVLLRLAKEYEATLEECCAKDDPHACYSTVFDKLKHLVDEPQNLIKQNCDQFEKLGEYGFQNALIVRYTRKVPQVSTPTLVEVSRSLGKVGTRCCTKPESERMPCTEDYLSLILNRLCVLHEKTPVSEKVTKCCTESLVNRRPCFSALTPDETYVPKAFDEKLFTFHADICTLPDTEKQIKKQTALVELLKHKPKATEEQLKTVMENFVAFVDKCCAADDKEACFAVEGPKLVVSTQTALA

B1: A2 (ssDNA)
DNA: TGCCCGTGTCCCGAGGAGGTGCCCTATTTTGCTTGATTATCTCTAAGGGATTTGGGCGG
In the case of B1, in series [1], the binding result is reported as “no binding”.

B2: B1-4 (ssDNA)
DNA: CCGCCCAAATCCCTAAGAGAAGACTGTAATGACATCAAACCAGACACACTACACACGCA
In the series with Interferon-gamma (IFN-γ) [2], B2 displayed a Kd of 74.5 nM.

For the molecule GGGGTTGGTTGTGTTGGGTGTTGTGT (ssDNA) [T2], the binding result (in series [3]; in the series with Interferon-gamma (IFN-γ) [4]) was “binds” in each case.

Usually Kd stands for the free concentration of one partner at which half of the binding sites on the other are occupied at equilibrium, for simple one-to-one binding.
